As a reminder, the EC50 (read off the curve) is the midpoint of the concentration-response curve.

In test [1] the target is T1, CD16A (FcgammaRIIIA) on primary human NK-cells (human, UniProt P08637 17-208). The test can be described thus: cell-based or functional assay.
For test [2], the target named is T2, B-cell maturation antigen (BCMA) on myeloma cell lines (human, UniProt Q02223 1-184).
T2 sequence (looked up): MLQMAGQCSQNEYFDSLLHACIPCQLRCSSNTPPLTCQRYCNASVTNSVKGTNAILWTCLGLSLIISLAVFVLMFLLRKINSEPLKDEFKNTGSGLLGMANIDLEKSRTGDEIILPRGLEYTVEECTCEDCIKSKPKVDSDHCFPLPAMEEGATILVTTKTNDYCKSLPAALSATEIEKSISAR
The experiment in a line: cell-based or functional assay.

The target in test [3] is T2, B-cell maturation antigen (BCMA) on …. The test can be described thus: cell-based or functional assay. The source holds these as a separate data set.
Test [4] has the same target. The test can be described thus: flow cytometry, titration on MM.1S cells; detection with CD16A-mFc.67/anti-human-FITC. As for the experimental part:
(§1) Antibody binding was quantified by detection with CD16A-mFc.67/anti-human-FITC and flow cytometry. control antibodies anti-BCMA (ANC3B1), anti-CD38 (HB7) and anti-CS1 (235614) were added at saturating concentrations and detected by anti-mouse-Fc-FITC (ctrl.)
In general terms: A flow cytometer gives signals particle by particle.

In test [5] the target is T1, CD16A (FcgammaRIIIA) on primary human …. The experiment in a line: flow cytometry, titration on primary human NK-cells at 37 C, buffer; apparent affinity. As for the experimental part:
(§2) Method: Serial dilutions of anti-CD16A scFv are added to primary human NK-cells at 37° C. for 45 min followed by detection of antibody binding on ice.

Test [6] concerns the target T2, B-cell maturation antigen (BCMA) on …. The experiment in a line: flow cytometry, titration on NCI-H929 cells; detection with CD16A-mFc.67/anti-human-FITC. As for the experimental part:
as §1

The target is the same in test [7]. The test can be described thus: flow cytometry, titration on RPMI-8226 cells; detection with CD16A-mFc.67/anti-human-FITC. As for the experimental part:
as §1

For test [8] the target is unchanged. The test can be described thus: flow cytometry titration on MM.1S cells; detection with CD16A-mFc.67/anti-human-FITC. As for the experimental part: as §1
The target of test [9] is T1, CD16A (FcgammaRIIIA) on primary human …. The test can be described thus: flow cytometry on primary human NK-cells, with against without 10 mg/mL polyclonal human IgG.
In test [10] the target is T2, B-cell maturation antigen (BCMA) on …. The experiment in a line: flow cytometry titration on NCI-H929 cells; detection with CD16A-mFc.67/anti-human-FITC. As for the experimental part: as §1
Test [11] deals with T1, CD16A (FcgammaRIIIA) on primary human …. The experiment in a line: flow cytometry, titration on primary human NK-cells at 37 C in presence of 10 mg/mL polyclonal human IgG (competitor).
The target is the same in test [12]. The experiment in a line: flow cytometry, titration on primary human NK-cells at 37 C, buffer; apparent affinity; detection via BCMA(1-54)-GCN4-His/anti-His.
For test [13] the target is unchanged. The test can be described thus: flow cytometry titration on primary human NK-cells, 37 C; detection with BCMA(1-54)-GCN4-His, anti-His mAb, FITC goat anti-mouse IgG. As for the experimental part: as §2
Test [14] has the same target. The experiment in a line: flow cytometry titration on primary human NK-cells, 37 C, buffer without IgG; detection with BCMA(1-54)-GCN4-His, anti-His mAb, FITC goat anti-mouse IgG.
For test [15] the target is unchanged. The test can be described thus: flow cytometry titration on primary human NK-cells, 37 C, in presence of 10 mg/mL polyclonal human IgG; detection with BCMA(1-54)-GCN4-His, anti-His mAb, FITC goat anti-mouse IgG.
Test [16] addresses T3, CS1 on myeloma cells (UniProt Q9NQ25 23-335, limits assumed). The test can be described thus: cell-based or functional assay.
The target in test [17] is T3, CS1 on myeloma cells. The test can be described thus: cell-based or functional assay. The source holds these as a separate data set.
For test [18], the target named is T3, CS1 on myeloma cells. The test can be described thus: flow cytometry, titration on MM.1S cells; detection with CD16A-mFc.67/anti-human-FITC. As for the experimental part: as §1
The target in test [19] is T3, CS1 on myeloma cells. The test can be described thus: flow cytometry, titration on NCI-H929 cells; detection with CD16A-mFc.67/anti-human-FITC. As for the experimental part: as §1
The target of test [20] is CD16A (FcgammaRIIIA) on primary human NK-cells (human) (UniProt P08637). The test can be described thus: cell-based or functional assay.
For test [21] the target is unchanged. The test can be described thus: flow cytometry, titration on primary human NK-cells at 37 C, buffer; detection with anti-His mAb.
The target is the same in test [22]. The experiment in a line: flow cytometry titration on primary human NK-cells, 37 C; detection with anti-His mAb, FITC goat anti-mouse IgG.

CD16A (FcgammaRIIIA) on primary human NK-cells (human), sequence (P08637 17-208): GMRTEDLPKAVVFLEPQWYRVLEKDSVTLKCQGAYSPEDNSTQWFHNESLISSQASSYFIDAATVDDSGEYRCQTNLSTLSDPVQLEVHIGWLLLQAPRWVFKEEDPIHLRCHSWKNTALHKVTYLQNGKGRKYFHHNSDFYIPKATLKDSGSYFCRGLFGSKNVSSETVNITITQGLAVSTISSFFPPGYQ
T1 sequence (P08637 17-208): as above

B1: BCMA/CD16A-directed tandem diabody in variant 4 (bispecific antibody)
chain: QVQLVQSGAEVKTPGEPLKISCKGSGYSFTDSWIGWVRQMPGKGLEWMGIIYAGDSDARYSPSFQGQVTISADTSTSTVYLQWSSLKASDTAMYYCARNFGDHWGQGTLVTVSSGGSGGSGGSGGSSYVLTQPSSVSVAPGQTATISCGGHNIGSKNVHWYQQRPGQSPVLVIYQDNKRPSGIPERFSGSNSGNTATLTISGTQAMDEADYYCQVWDNYSVLFGGGTKLTVLGGSQVQLVQSGAEVKKPGESLKVSCKASGYTFTSYYMHWVRQAPGQGLEWMGAIEPMYGSTSYAQKFQGRVTMTRDTSTSTVYMELSSLRSEDTAVYYCARGSAYYYDFADYWGQGTLVTVSSGGSGGSGGSGGSSYELTQSPSVSVAPGQTARIFCGGDNIGSKNVHWYQQKPGQAPVLVIYRDSNRPSGIPERFSGANSENTATLTISRAQAGDEADYYCQVWDSRTYVFGTGTKLTVL
notes: also called tandem diabody variant 4; Tandem diabody (v4)
Regarding B1, the “EC50 of NK-cell-mediated lysis of BCMA+ NCI-H929 cells (4 h calcein release), 10 mg/mL polyclonal human IgG” value in test [1] is 0.0761 nM. The “EC50 of NK-cell-mediated lysis of BCMA+ NCI-H929 cells (4 h calcein release), buffer” value in test [1] is 0.0162 nM. Moreover, the “Fold-loss in potency (EC50 with 10 mg/mL IgG against buffer)” value in [1] is 4.7 fold. Besides, the “EC50 of NK-cell-mediated lysis of MM.1S cells (4 h calcein release)” value in test [2] is 0.0037 nM. In addition, the “EC50 of NK-cell-mediated lysis of NCI-H929 cells (4 h calcein release)” value in [2] is 0.0091 nM. Moreover, the “EC50 of NK-cell-mediated lysis of RPMI-8226 cells (4 h calcein release)” value in test [2] is 0.0623 nM. Besides, the “EC50 of NK-cell-mediated lysis of primary myeloma cells from a pleural effusion (multiple myeloma; 4 h 51Cr release)” value in test [3] stood at 0.004 nM. Also, in [3], the “EC50 of NK-cell-mediated lysis of primary myeloma cells from peripheral blood (plasma cell leukemia; 4 h 51Cr release)” value was 0.0063 nM. Moreover, the Kd in test [4] came out at 11.5 nM; in test [5] it was 1.2 nM; in [6], 27.7 nM; in test [7], 26.7 nM; in test [11] it was 3.6 nM; in test [12], 1.2 nM. The “EC50 (read off the curve)” value in test [8] was around 10 nM; in [10], around 20 nM; in [13], around 1 nM; in [14], around 1 nM; in [15], around 4 nM. Moreover, the “fold-change (KD with 10 mg/mL IgG against KD in buffer)” value in [9] turned out to be 3 fold.

B2: elotuzumab (antibody, V domains shown)
VH: EVQLVESGGGLVQPGGSLRLSCAASGFDFSRYWMSWVRQAPGKGLEWIGEINPDSSTINYAPSLKDKFIISRDNAKNSLYLQMNSLRAEDTAVYYCARPDGNYWYFDVWGQGTLVTVSS
VL: DIQMTQSPSSLSASVGDRVTITCKASQDVGIAVAWYQQKPGKVPKLLIYWASTRHTGVPDRFSGSGSGTDFTLTISSLQPEDVATYYCQQYSSYPYTFGQGTKVEIK
Consider B2, for which, in test [16], the “EC50 of NK-cell-mediated lysis of MM.1S cells (4 h calcein release)” value was 0.153 nM and the “EC50 of NK-cell-mediated lysis of NCI-H929 cells (4 h calcein release)” value is 0.394 nM. Besides, in test [17], the “EC50 of NK-cell-mediated lysis of primary myeloma cells (multiple myeloma; 4 h 51Cr release)” value amounted to 0.145 nM and the “EC50 of NK-cell-mediated lysis of primary myeloma cells (plasma cell leukemia; 4 h 51Cr release)” value stood at 0.0782 nM. In test [18], this molecule displayed a Kd of 35.7 nM. The same molecule gave a Kd in test [19] of 36 nM.

B3: Anti-CD16A diabody (protein, not shown: small tags and cut ends)
VL: SYVLTQPSSVSVAPGQTATISCGGHNIGSKNVHWYQQRPGQSPVLVIYQDNKRPSGIPERFSGSNSGNTATLTISGTQAMDEADYYCQVWDNYSVLFGGGTKLTVL
VH: QVQLVQSGAEVKKPGESLKVSCKASGYTFTSYYMHWVRQAPGQGLEWMGAIEPMYGSTSYAQKFQGRVTMTRDTSTSTVYMELSSLRSEDTAVYYCARGSAYYYDFADYWGQGTLVTVSS
modifications: diabody linker not stated
In the case of B3, in test [20], the EC50 of antibody-induced NK-cell-NK-cell lysis (4 h calcein release) was 0.659 nM.

B4: Anti-CD16A scFv (scFv, V domains shown, part only)
VL: B3 VL
VH: B3 VH
In test [21], B4 gave a Kd of 12.2 nM. Besides, the concentration giving a half-maximal response (EC50 (read off the curve)) in [22] stood at 10 nM.

Values taken from patent US20220041717A1 (AFFIMED, published 2022).
